Consider one protein from paper PMC5864845, “Engineering enhanced cellobiohydrolase activity” (Nature Communications, 2018).

Substrate in the data set: [H][C@@]1(O[C@H]2[C@H](O)[C@@H](O)[C@H](Oc3ccc([N+](=O)[O-])cc3)O[C@@H]2CO)O[C@H](CO)[C@H](O)[C@H](O)[C@H]1O
The experiment in a line: p-nitrophenol release, A405, Michaelis-Menten fit. Particulars: 20 mM acetate pH 5.0, 100 mM NaCl, 40 °C. Type of data set: biochemical, Trichoderma reesei. Here is the method: p-nitrophenol release, A405, Michaelis-Menten fit on […] | Vmax and Km were determined using p-nitrophenyl-β-D-lactopyranoside (pNPL, Sigma) as substrate

B1: TrCel7A (Trichoderma reesei) (protein)
chain: QSACTLQSETHPPLTWQKCSSGGTCTQQTGSVVIDANWRWTHATNSSTNCYDGNTWSSTLCPDNETCAKNCCLDGAAYASTYGVTTSGNSLSIGFVTQSAQKNVGARLYLMASDTTYQEFTLLGNEFSFDVDVSQLPCGLNGALYFVSMDADGGVSKYPTNTAGAKYGTGYCDSQCPRDLKFINGQANVEGWEPSSNNANTGIGGHGSCCSEMDIWEANSISEALTPHPCTTVGQEICEGDGCGGTYSDNRYGGTCDPDGCDWNPYRLGNTSFYGPGSSFTLDTTKKLTVVTQFETSGAINRYYVQNGVTFQQPNAELGSYSGNELNDDYCTAEEAEFGGSSFSDKGGLTQFKKATSGGMVLVMSLWDDYYANMLWLDSTYPTNETSSTPGAVRGSCSTSSGVPAQVESQSPNAKVTFSNIKFGPIGSTGNPSGGNPPGGNRGTTTTRRPATTTGSSPGPTQSHYGQCGGIGYSGPTVCASGTTCQVLNPYYSQCL
notes: full length wild type (catalytic domain, linker, CBM1), secreted and purified from Trichoderma reesei AST1116 (QM6A, cbh1 deletion) host, pTrEno
The term Km denotes the substrate concentration at which the rate is half of its maximum. What is called kcat is the number of substrate molecules converted per active site and unit of time at saturation. Regarding B1, the Km was 2195 ± 880 µM and the catalytic constant (kcat) amounted to 0.2377 ± 0.0175 s⁻¹.
